Assays:
[1] = target: T1, soluble aggregates of Aβ_(1–42) (SBAs) (human, UniProt P05067 672-713); assay: ELISA; conditions: both partners purified
T1 construct: also called soluble Aβ aggregates; SPAs (as a member of the group)

[2] = target: T2, soluble aggregates of tau (STAs) (human, UniProt P10636-8 1-441); assay: ELISA; conditions: both partners purified
T2 construct: also called soluble Tau aggregates; SPAs (as a member of the group)
T2 sequence (P10636 other isoform, or with tags, fused parts or gaps): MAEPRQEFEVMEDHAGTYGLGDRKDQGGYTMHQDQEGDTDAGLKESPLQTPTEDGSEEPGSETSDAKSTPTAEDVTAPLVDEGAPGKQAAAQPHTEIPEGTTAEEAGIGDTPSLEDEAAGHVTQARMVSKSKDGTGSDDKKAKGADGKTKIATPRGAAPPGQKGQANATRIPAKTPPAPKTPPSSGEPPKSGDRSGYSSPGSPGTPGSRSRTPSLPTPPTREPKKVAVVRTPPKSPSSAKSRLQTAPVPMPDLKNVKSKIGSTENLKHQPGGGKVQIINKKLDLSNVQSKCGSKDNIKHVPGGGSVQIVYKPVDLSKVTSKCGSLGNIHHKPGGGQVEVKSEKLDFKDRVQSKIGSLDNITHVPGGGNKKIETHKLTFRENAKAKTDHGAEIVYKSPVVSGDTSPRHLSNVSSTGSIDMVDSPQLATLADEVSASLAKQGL

B1: recombinant murine prion protein PrP_(23–231) (domain or fragment)
chain: not shown
notes: also called full-length PrP
B1: binds [1]; binds [2].
